Where two headings read alike, the source gives them in different places. Each block holds one substance with its values, some of them ahead of it.
Columns and labels:
mouse Ang2 (mouse) [1] = biological target: mouse Ang2 (mouse) (UniProt O35608); test: competition ELISA: mAng2 binding to mTie2
mouse Ang2 (mouse) [2] = biological target: mouse Ang2 (mouse) (UniProt O35608); test: competition ELISA: mAng2 binding to mTie2; remark: listed apart in the source
human Ang2 (human) [3] = biological target: human Ang2 (human) (UniProt O15123); test: competition ELISA hAng2/hTie2-Fc
mouse Ang2 (mouse) [4] = biological target: mouse Ang2 (mouse) (UniProt O35608); test: competition ELISA: mAng2 binding to mTie2; remark: listed apart in the source
human Ang2 (human) [5] = biological target: human Ang2 (human) (UniProt O15123); test: competition ELISA: hAng2 binding to hTie2
human Ang2 (human) [6] = biological target: human Ang2 (human) (UniProt O15123); test: competition ELISA hAng2/hTie2-Fc; remark: listed apart in the source
human Ang2 (human) [7] = biological target: human Ang2 (human) (UniProt O15123); test: competition ELISA hAng2/hTie2-Fc, with 0.5 uM HSA [continued]
human Ang2 (human) [8] = biological target: human Ang2 (human) (UniProt O15123); test: as above; remark: listed apart in the source
mouse Ang2 (mouse) [9] = biological target: mouse Ang2 (mouse) (UniProt O35608); test: competition ELISA: mAng2 binding to mTie2; remark: listed apart in the source
[10] = biological target: mouse DLL4, full length, overexpressed on CHO or HEK293 cells (mouse) (UniProt Q9JI71); test: competition FMAT: labelled hNotch1/Fc binding to CHO-mDLL4 cells
[11] = biological target: mouse DLL4, full length, overexpressed on CHO or HEK293 cells (mouse) (UniProt Q9JI71); test: competition FMAT: labelled hNotch1-Fc on CHO-mDLL4 cells, with 25 uM HSA [continued]
[12] = biological target: recombinant human DLL4 extracellular domain, C-terminally His-tagged (R&D Systems) (human) (UniProt Q9NR61); test: competition ELISA: 8 nM biotinylated hDLL4 binding to coated hNotch1/Fc
[13] = biological target: mouse DLL4, full length, overexpressed on CHO or HEK293 cells (mouse) (UniProt Q9JI71); test: competition FMAT: labelled hNotch1-Fc on CHO-mDLL4 cells
[14] = biological target: recombinant human DLL4 extracellular domain, C-terminally His-tagged (R&D Systems) (human) (UniProt Q9NR61); test: competition ELISA: 8 nM biotinylated hDLL4 + binder, residual binding to coated hNotch1-Fc
[15] = biological target: recombinant human DLL4 extracellular domain, C-terminally His-tagged (R&D Systems) (human) (UniProt Q9NR61); test: hDLL4/hNotch1-Fc competition ELISA
[16] = biological target: human DLL4, full length, overexpressed on CHO or HEK293 cells (human) (UniProt Q9NR61); test: competition FMAT: labelled hNotch1-Fc on CHO-hDLL4 cells, with 25 uM HSA [continued]
[17] = biological target: recombinant human DLL4 extracellular domain, C-terminally His-tagged (R&D Systems) (human) (UniProt Q9NR61); test: binding ELISA on coated rhDLL4
[18] = biological target: recombinant human DLL4 extracellular domain, C-terminally His-tagged (R&D Systems) (human) (UniProt Q9NR61); test: hDLL4/hNotch1 competition AlphaScreen
[19] = biological target: human DLL4, full length, overexpressed on CHO or HEK293 cells (human) (UniProt Q9NR61); test: competition FMAT: labelled hNotch1-Fc on CHO-hDLL4 cells, with 25 uM HSA [continued]; remark: listed apart in the source
[20] = biological target: mouse DLL4, full length, overexpressed on CHO or HEK293 cells (mouse) (UniProt Q9JI71); test: competition FMAT: labelled hNotch1/Fc binding to CHO-mDLL4 cells; panel '+ HSA', HSA not marked for this curve [continued]
[21] = biological target: mouse DLL4, full length, overexpressed on CHO or HEK293 cells (mouse) (UniProt Q9JI71); test: competition FMAT: labelled hNotch1/Fc binding to CHO-mDLL4 cells; remark: listed apart in the source
[22] = biological target: recombinant human DLL4 extracellular domain, C-terminally His-tagged (R&D Systems) (human) (UniProt Q9NR61); test: competition ELISA: 8 nM biotinylated hDLL4 + binder, residual binding to coated hNotch1-Fc; remark: listed apart in the source
[23] = biological target: human DLL4, full length, overexpressed on CHO or HEK293 cells (human) (UniProt Q9NR61); test: competition FMAT: labelled hNotch1-Fc on CHO-hDLL4 cells
[24] = biological target: mouse DLL4, full length, overexpressed on CHO or HEK293 cells (mouse) (UniProt Q9JI71); test: competition FMAT: labelled hNotch1-Fc on CHO-mDLL4 cells; remark: listed apart in the source
[25] = biological target: mouse DLL4, full length, overexpressed on CHO or HEK293 cells (mouse) (UniProt Q9JI71); test: competition FMAT: labelled hNotch1-Fc on CHO-mDLL4 cells, with 25 uM HSA [continued]; remark: listed apart in the source
[26] = biological target: human DLL4, full length, overexpressed on CHO or HEK293 cells (human) (UniProt Q9NR61); test: competition FMAT: labelled hNotch1-Fc on CHO-hDLL4 cells; remark: listed apart in the source
[27] = biological target: mouse DLL4, full length, overexpressed on CHO or HEK293 cells (mouse) (UniProt Q9JI71); test: competition FMAT: labelled hNotch1/Fc binding to CHO-mDLL4 cells; panel '+ HSA', HSA not marked for this curve [continued]; remark: listed apart in the source
[28] = biological target: human DLL4, full length, overexpressed on CHO or HEK293 cells (human) (UniProt Q9NR61); test: cell-based or functional assay
[29] = biological target: mouse DLL4, full length, overexpressed on CHO or HEK293 cells (mouse) (UniProt Q9JI71); test: FMAT, Notch1/Fc on CHO-mDLL4
[30] = biological target: human DLL4, full length, overexpressed on CHO or HEK293 cells (human) (UniProt Q9NR61); test: competition FMAT: labelled hNotch1/Fc binding to CHO-hDLL4 cells
[31] = biological target: human DLL4, full length, overexpressed on CHO or HEK293 cells (human) (UniProt Q9NR61); test: FMAT, Notch1/Fc on CHO-hDLL4
[32] = biological target: recombinant mouse DLL4 extracellular domain, C-terminally His-tagged (R&D Systems) (mouse) (UniProt Q9JI71); test: binding ELISA on coated rmDLL4
[33] = biological target: human DLL4, full length, overexpressed on CHO or HEK293 cells (human) (UniProt Q9NR61); test: competition FMAT: labelled hNotch1/Fc binding to CHO-hDLL4 cells; panel '+ HSA', HSA not marked for this curve [continued]

Chain of human Ang2 (human) (O15123 19-496 limits assumed): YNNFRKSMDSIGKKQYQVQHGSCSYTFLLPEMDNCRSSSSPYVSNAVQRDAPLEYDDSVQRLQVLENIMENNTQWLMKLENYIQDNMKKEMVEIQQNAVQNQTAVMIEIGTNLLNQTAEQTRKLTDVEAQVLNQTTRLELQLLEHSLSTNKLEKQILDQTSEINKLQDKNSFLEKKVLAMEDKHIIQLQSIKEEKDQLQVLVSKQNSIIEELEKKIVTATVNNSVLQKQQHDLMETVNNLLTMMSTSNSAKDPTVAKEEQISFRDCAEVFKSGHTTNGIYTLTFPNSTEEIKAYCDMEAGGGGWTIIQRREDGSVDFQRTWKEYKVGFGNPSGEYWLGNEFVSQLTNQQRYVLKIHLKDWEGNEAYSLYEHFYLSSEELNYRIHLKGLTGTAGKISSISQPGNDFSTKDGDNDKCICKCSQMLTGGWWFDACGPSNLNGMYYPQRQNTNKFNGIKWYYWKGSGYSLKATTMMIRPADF
Chain of mouse Ang2 (mouse) (O35608 19-496 limits assumed): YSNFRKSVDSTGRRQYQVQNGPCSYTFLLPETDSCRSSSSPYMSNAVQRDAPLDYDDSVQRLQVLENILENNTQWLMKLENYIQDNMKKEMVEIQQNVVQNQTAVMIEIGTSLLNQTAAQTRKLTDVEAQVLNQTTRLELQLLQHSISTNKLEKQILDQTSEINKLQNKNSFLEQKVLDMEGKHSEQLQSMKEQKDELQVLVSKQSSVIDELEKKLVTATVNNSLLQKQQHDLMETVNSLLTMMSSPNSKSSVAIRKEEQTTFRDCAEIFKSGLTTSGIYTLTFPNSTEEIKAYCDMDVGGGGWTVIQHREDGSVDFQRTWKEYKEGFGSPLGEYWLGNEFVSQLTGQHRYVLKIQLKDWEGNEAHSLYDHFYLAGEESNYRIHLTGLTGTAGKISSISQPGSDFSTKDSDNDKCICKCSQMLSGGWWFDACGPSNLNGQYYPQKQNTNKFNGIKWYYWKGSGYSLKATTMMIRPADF
Chain of mouse DLL4, full length, overexpressed on CHO or HEK293 cells (mouse) (Q9JI71 27-686): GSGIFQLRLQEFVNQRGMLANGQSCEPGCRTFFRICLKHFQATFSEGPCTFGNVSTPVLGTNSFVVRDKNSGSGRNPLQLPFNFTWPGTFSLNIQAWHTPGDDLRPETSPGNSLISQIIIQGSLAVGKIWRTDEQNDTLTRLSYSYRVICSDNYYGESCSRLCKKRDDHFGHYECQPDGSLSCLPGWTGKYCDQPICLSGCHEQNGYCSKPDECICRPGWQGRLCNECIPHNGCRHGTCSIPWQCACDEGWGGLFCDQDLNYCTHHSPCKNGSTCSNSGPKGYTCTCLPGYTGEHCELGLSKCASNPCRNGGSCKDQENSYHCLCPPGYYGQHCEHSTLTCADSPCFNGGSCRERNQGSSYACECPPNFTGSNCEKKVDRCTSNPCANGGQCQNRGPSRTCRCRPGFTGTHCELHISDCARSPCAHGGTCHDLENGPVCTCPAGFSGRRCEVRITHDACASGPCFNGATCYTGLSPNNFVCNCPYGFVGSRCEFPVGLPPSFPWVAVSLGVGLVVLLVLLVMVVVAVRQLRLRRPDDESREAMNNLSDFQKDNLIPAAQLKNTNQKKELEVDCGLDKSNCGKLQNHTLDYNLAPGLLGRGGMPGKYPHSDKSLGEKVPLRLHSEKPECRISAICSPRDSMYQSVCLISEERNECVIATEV
Chain of recombinant mouse DLL4 extracellular domain, C-terminally His-tagged (R&D Systems) (mouse) (Q9JI71 27-525 limits assumed): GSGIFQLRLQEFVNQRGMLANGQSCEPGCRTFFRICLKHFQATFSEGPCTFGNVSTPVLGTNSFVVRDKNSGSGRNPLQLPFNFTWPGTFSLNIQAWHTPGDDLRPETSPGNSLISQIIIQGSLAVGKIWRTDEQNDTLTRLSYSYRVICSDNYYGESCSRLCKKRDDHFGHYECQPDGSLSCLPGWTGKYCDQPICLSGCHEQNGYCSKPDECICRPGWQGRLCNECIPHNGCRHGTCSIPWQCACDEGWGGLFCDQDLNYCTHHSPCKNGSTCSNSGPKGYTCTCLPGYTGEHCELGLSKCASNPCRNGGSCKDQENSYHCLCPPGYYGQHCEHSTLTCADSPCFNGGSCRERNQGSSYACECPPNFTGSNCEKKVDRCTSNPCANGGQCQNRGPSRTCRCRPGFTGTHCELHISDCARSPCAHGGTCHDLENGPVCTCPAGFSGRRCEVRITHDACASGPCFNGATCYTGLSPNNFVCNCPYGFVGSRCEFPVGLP

IC50 (read off the curve) (mouse Ang2 (mouse) [1]): 0.009 nM | IC50 (read off the curve) (mouse Ang2 (mouse) [2]): 0.003 nM | IC50 (read off the curve) (human Ang2 (human) [3]): 0.005 nM | IC50 (read off the curve) (mouse Ang2 (mouse) [4]): 0.007 nM | IC50 (read off the curve) (human Ang2 (human) [5]): 0.003 nM | IC50 (read off the curve) (human Ang2 (human) [6]): 0.004 nM | IC50 (read off the curve) (human Ang2 (human) [7]): 0.004 nM | IC50 (read off the curve) (human Ang2 (human) [8]): 0.005 nM | IC50 (read off the curve) (mouse Ang2 (mouse) [9]): 0.004 nM
Substance: AMG386

IC50 (read off the curve) [10]: 2 nM | IC50 (read off the curve) [11]: 2 nM | IC50 (read off the curve) [12]: 3 nM | IC50 (read off the curve) [13]: 1 nM | IC50 (read off the curve) [14]: 5 nM | IC50 [15]: 0.7 nM | IC50 (read off the curve) [16]: 7 nM | EC50 (read off the curve) [17]: 0.8 nM | IC50 [18]: 0.3 nM | IC50 (read off the curve) [19]: 4 nM | IC50 (read off the curve) [20]: 3 nM | IC50 (read off the curve) [21]: 3 nM | IC50 (read off the curve) [22]: 4 nM | IC50 (read off the curve) [23]: 5 nM | IC50 (read off the curve) [24]: 2 nM | IC50 (read off the curve) [25]: 1 nM | IC50 (read off the curve) [26]: 7 nM | IC50 (read off the curve) [27]: 2 nM | IC50, DLL4/Notch1 reporter assay (luciferase; co-culture with HEK293-hDII4) [28]: 133 nM | IC50 [29]: 2.3 nM | IC50 (read off the curve) [30]: 4 nM | IC50 [31]: 5.4 nM | EC50 (read off the curve) [32]: 0.9 nM | IC50 (read off the curve) [33]: 3 nM
Substance: anti-DLL4 Fab fragment (Fab of the Genentech DII4 mAb of US 2008/0014196)
